The text below walks through data of PMC8239744, “Mutations in myosin S2 alter cardiac myosin-binding protein-C interaction in hypertrophic cardiomyopathy in a phosphorylation-dependent manner” (The Journal of Biological Chemistry, 2021).

One may read the Kd as a measure of binding affinity in units of concentration. By stoichiometry N is commonly meant the number of molecules, sites or subunits per partner or assembly.

The target in test [1] is human β-myosin heavy chain, proximal S2 (hS2) proximal S2, 838-963 (UniProt P12883). The experiment in a line: solid-phase binding assay (SPBA). The note with it: sites S273,S282,S302.
For test [2], the target named is human C0-C2 region of cardiac myosin-binding protein-C (hC0-C2) (human) (UniProt Q14896). As to the kind of experiment: ITC; 350 μM hS2 titrated into 20 μM hC0-C2 (with or without PKA phosphorylation) in PBS at 20 °C; MicroCal VP-ITC; 25 injections of 10 μl at 180 s; four-parameter logistic fit; Kd calculated from the reciprocal of the slope.
Test [3] addresses PKA-phosphorylated human C0-C2 (hC0-C2p) (human) (UniProt Q14896). The test is described as above.
In test [4] the target is mouse recombinant C0-C2 protein, WT (mC0-C2^Wt) (mouse, UniProt O70468 1-448). As to the kind of experiment: solid-phase binding assay (SPBA); 20 μM C0-C2 (bait) adsorbed onto microtiter plates overnight at 4 °C; 0-20 μM recombinant myosin S2 (prey) added; bound S2 detected with polyclonal anti-S2 antibody and Alexa Fluor 568 secondary antibody; intensity normalised to that at maximal S2; one-phase association fit for Bmax and Kd. As to conditions: both partners purified.
mouse recombinant C0-C2 protein, WT (mC0-C2^Wt), sequence (O70468 1-448): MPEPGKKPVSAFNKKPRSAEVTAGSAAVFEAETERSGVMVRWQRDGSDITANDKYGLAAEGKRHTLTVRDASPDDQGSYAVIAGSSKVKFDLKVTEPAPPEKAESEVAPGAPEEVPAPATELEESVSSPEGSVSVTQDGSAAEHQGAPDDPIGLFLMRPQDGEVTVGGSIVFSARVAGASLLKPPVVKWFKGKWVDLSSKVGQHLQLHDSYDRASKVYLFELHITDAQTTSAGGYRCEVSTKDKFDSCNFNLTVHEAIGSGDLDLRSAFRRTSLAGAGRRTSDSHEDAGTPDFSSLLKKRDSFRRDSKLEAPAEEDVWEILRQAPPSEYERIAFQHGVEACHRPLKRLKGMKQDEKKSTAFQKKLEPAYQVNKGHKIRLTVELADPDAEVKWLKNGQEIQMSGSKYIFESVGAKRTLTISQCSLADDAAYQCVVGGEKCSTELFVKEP

Test [5] concerns the target mouse recombinant C0-C2 protein, phospho-ablated (mC0-C2^AAA) (mouse) (UniProt O70468). The description is as above.
Test [6] has as its target human C0-C2 region of cardiac myosin-binding protein-C (hC0-C2) (human) (UniProt Q14896). Described as above.
For test [7], the target named is mouse recombinant C0-C2 protein, phospho-mimetic (mC0-C2^DDD) (mouse) (UniProt O70468). The test is described as above.
mouse recombinant C0-C2 protein, phospho-mimetic (mC0-C2^DDD) (mouse), sequence (O70468 other isoform, or with tags, fused parts or gaps): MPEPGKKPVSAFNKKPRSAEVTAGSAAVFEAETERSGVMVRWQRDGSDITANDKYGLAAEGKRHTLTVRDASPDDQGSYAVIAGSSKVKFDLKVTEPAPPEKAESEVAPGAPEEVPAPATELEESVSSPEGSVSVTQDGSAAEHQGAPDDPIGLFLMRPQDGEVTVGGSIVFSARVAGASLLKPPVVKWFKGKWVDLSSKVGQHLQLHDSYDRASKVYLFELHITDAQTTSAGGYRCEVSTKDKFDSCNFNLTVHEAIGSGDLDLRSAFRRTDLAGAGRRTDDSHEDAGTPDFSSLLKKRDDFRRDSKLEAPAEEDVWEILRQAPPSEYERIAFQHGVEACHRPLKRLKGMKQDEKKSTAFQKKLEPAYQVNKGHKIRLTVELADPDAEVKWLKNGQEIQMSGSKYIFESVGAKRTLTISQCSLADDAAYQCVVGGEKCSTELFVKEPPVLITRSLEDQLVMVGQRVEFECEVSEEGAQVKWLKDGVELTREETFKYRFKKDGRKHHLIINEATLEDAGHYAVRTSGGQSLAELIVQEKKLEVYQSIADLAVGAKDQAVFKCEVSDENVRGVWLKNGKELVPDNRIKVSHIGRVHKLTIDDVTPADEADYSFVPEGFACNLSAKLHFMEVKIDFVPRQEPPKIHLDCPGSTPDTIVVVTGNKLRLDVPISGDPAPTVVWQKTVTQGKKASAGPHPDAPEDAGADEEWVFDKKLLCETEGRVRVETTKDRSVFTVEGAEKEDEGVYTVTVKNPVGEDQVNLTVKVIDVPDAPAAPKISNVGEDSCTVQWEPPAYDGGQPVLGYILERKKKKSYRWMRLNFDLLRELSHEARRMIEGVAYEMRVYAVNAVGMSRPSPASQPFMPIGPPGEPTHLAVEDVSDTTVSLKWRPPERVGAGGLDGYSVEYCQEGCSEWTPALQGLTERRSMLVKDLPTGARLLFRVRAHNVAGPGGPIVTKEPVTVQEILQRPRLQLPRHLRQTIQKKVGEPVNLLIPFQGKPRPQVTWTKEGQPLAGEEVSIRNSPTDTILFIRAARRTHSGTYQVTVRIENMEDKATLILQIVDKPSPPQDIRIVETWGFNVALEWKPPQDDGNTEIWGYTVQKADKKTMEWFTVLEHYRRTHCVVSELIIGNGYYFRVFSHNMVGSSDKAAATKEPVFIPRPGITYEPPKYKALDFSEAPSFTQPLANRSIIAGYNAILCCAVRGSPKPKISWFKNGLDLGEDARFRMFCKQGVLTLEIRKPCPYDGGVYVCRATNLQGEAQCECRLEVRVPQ
The target of test [8] is PKA-phosphorylated human C0-C2 (hC0-C2p) (human) (UniProt Q14896). Described as above.

Substitutions are numbered along the chain they refer to. Numbers in names are those of the source.

mouse recombinant C0-C2 protein, phospho-ablated (mC0-C2^AAA) (mouse), sequence (O70468 other isoform, or with tags, fused parts or gaps): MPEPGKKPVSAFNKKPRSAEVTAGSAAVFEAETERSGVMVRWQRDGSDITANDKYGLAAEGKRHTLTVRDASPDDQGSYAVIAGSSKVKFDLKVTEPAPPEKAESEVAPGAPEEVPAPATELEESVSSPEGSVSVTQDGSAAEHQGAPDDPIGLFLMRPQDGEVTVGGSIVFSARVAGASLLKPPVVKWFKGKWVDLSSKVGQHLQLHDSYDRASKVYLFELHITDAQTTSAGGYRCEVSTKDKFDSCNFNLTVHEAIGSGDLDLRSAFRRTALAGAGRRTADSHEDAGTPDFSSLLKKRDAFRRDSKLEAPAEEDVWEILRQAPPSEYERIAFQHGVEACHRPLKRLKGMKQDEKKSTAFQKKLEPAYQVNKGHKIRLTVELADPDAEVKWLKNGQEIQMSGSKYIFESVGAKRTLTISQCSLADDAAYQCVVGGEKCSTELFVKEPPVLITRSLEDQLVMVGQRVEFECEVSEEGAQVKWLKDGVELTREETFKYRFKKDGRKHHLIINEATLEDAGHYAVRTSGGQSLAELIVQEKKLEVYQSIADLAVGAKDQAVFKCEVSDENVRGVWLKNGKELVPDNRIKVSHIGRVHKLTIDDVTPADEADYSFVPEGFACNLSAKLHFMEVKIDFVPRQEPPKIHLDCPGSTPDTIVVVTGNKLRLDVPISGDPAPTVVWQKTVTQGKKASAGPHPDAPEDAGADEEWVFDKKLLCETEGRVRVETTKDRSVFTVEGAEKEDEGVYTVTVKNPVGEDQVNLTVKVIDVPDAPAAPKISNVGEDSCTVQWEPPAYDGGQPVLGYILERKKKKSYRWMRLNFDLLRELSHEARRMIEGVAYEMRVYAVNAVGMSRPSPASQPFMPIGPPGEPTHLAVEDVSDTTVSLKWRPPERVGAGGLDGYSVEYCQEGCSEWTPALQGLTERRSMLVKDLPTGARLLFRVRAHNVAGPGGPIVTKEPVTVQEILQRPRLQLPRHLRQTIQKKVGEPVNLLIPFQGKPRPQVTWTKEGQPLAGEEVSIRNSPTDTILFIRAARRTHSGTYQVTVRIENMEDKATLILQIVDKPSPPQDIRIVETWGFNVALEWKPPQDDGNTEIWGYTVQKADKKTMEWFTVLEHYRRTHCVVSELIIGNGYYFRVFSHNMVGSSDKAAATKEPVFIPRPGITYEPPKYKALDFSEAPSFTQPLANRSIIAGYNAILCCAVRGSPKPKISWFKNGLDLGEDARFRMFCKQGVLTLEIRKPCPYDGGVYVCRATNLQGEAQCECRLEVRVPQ

For “mouse cardiac myosin-binding protein-C (cMyBP-C), mC0-C2 C0-C2 (from UniProt O70468) mC0-C2 DDD”, the “other: Bmax” value is “weaker; reference 0.95 ± 0.04” in test [1] (reference: mC0-C2 AAA) and “weaker; reference 1.02 ± 0.04” in test [1] (reference: mC0-C2 wild type).

B1: human recombinant proximal S2 protein with E930Δ mutation (hS2^E930Δ) (domain or fragment, UniProt P12883 838-963, looked up)
chain: PLLKSAEREKEMASMKEEFTRLKEALEKSEARRKELEEKMVSLLQEKNDLQLQVQAEQDNLADAEERCDQLIKNKIQLEAKVKEMNERLEDEEMNAELTAKKRKLEDECSELKRDIDDLELTLAK
notes: human β-myosin heavy chain (MYH7), proximal S2, residues 838-963, with the HCM-causing deletion of E930; mutation found in HCM patients, introduced by site-directed mutagenesis; coiled coil in low-salt buffer by CD
B1: the equilibrium dissociation constant (Kd) is 42300 nM in test [2]; 8570 nM in test [3]; 1320 nM in test [4]; 1220 nM in test [5]; 6670 nM in test [6]; 880 nM in test [7]. Also, the Kd in test [8] was 970 nM. The stoichiometry N in test [3] is 0.35. For the same molecule, the stoichiometry (η) based on Bmax, hC0-C2 to hS2 mutant compared with hS2^WT in test [6] came to 1.23. Besides, in test [8], the stoichiometry (η) based on Bmax, hC0-C2p to hS2 mutant came to 1.24.

B2: human recombinant proximal S2 WT protein (hS2^Wt) (domain or fragment, UniProt P12883 838-963, looked up)
chain: PLLKSAEREKEMASMKEEFTRLKEALEKSEARRKELEEKMVSLLQEKNDLQLQVQAEQDNLADAEERCDQLIKNKIQLEAKVKEMNERLEDEEEMNAELTAKKRKLEDECSELKRDIDDLELTLAK
notes: pET28a+ vector; also called WT hS2; human cardiac myosin S2
B2: the Kd in test [2] was 4710 nM; in test [4], 1890 nM; in test [5], 1810 nM; in test [6], 5040 nM; in test [7] it was 2020 nM; in test [8] it was 7350 nM. Further, the stoichiometry N in test [2] was 1.08. Besides, the stoichiometry (η) based on Bmax, hC0-C2p to hS2^Wt compared with hC0-C2 to hS2^WT in test [8] came to 1.26.

B3: human recombinant proximal S2 protein with R870H mutation (hS2^R870H) (domain or fragment, UniProt P12883 838-963, looked up)
chain: B2 chain with R33H
notes: human β-myosin heavy chain (MYH7), proximal S2, residues 838-963, with the HCM-causing mutation R870H; mutation found in HCM patients, introduced by site-directed mutagenesis; coiled coil in low-salt buffer by CD
On to B3, for which the Kd in test [2] is 19000 nM; in test [3], 11000 nM; in test [4] it was 1640 nM; in test [5] it was 1510 nM; in test [6], 6290 nM; in test [7], 790 nM. Further, the Kd in test [8] was 1260 nM. The results for the stoichiometry N in test [2] and in test [3] were 2.53 and 1.07, respectively. In addition, the stoichiometry (η) based on Bmax, hC0-C2 to hS2 mutant compared with hS2^WT in test [6] was 1.24. The stoichiometry (η) based on Bmax, hC0-C2p to hS2 mutant in test [8] came to 1.17.

B4: human recombinant proximal S2 protein with E924K mutation (hS2^E924K) (domain or fragment, UniProt P12883 838-963, looked up)
chain: B2 chain with E87K
notes: human β-myosin heavy chain (MYH7), proximal S2, residues 838-963, with the HCM-causing mutation E924K; mutation found in HCM patients, introduced by site-directed mutagenesis; coiled coil in low-salt buffer by CD
As to B4, the dissociation constant (Kd) in test [2] was 30500 nM; in test [3], 16500 nM; in test [4], 1510 nM; in test [5], 1480 nM; in test [6] it was 4300 nM; in test [7] it was 740 nM. In addition, the Kd in test [8] stood at 830 nM. In test [3], the stoichiometry N is 2.57. The stoichiometry (η) based on Bmax, hC0-C2 to hS2 mutant compared with hS2^WT in test [6] was found to be 1.21. The stoichiometry (η) based on Bmax, hC0-C2p to hS2 mutant in test [8] was found to be 1.21.
